Measured values published in publication PMC548802.

Experiments:
[1] = target: tetranectin with substitution of threonine 149 with tyrosine (TN^T149Y) (human) (UniProt P05452); assay: ELISA
[2] = target: tetranectin in which lysine 148 was replaced with alanine (TN^K148A) (human) (UniProt P05452); assay: ELISA

human plasminogen (natural protein) was tested. Which ELISA specific binding (OD 450, binding to BSA subtracted) [1] did it give?
The ELISA specific binding (OD 450, binding to BSA subtracted) was 1.73 OD 450.

Which ELISA specific binding (OD 450, binding to BSA subtracted) [1] does the source give for “recombinant human angiostatin containing kringle domains 1-3 (AST^K1-3) (domain or fragment)” here?
Its ELISA specific binding (OD 450, binding to BSA subtracted) is 0.43 OD 450.

Which results are given for “recombinant human angiostatin containing kringle domains 1-4 (AST^K1-4) (domain or fragment)”?
ELISA specific binding (OD 450, binding to BSA subtracted) [1]: 1.83 OD 450; ELISA specific binding (OD 450, binding to BSA subtracted) [2]: 0.06 OD 450
